One molecule from article PMC11180146 (2024) can be followed below.

Test [1] deals with RNAseB, glycosylated (HM N-glycan at N34, mainly Man5 and Man6) (beef (bovine), as said of the protein in general) (UniProt P61823). The test is described as follows: SPR; glycosylated RNAseB (Man5/6) amine-coupled to a CM5 chip on flow cell 2 (150 RU), deglycosylated RNAseB on control flow cell 1; enzyme as analyte, 120 s injection, 600 s dissociation; HBS-EP running buffer; Biacore X100.

The target of test [2] is T1, RNAseB, glycosylated (HM N-glycan at N34, mainly Man5 and Man6) (beef (bovine), as said of the protein …, UniProt P61823 27-150, HM N-glycan (mainly Man5 and Man6) at N34).
T1 chain: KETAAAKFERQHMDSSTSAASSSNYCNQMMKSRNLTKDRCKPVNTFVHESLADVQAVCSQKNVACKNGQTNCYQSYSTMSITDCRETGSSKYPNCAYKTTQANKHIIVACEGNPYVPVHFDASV
The test is described as follows: SPR.

B1: BT1285_(D161A-E163A), catalytically inactive variant of the GH18 endo-β-N-acetylglucosaminidase BT1285 (enzyme)
chain: MPVNQSDNNQSEVVTRSATGIKNIVYIEVNDINPLNAGSYIMDDAPFFDYVILFAANIRGVGSDATLYNNPNVQYILDHKDTLIKPLQDKGIKVLLGLLGDHTGLGFANMNSAQTEQFATAVANAVSQYGLDGVDFADAWAEYGRNGYPSGSTGSFSNLITALHNKMPGKTITVFNYGYTSELTGVNSYIDYGIYAFFNSPSWSTGFGMPNSKFAPYTINLNSAPSAASAQLYSGQVASKGYGAIGYYDLRANNIVSVLNGVAKGAFKSTCTYDGNSYPKNY
What is called Kd is a measure of binding affinity in units of concentration. Low readings indicate higher affinity, high ones lower affinity. The koff is a measure of how fast the partners let go of each other. A higher koff goes with a short-lived complex. In test [1], B1 came in with a Kd of 3.5 nM. Also, in test [2], the koff was found to be 0.000419 s⁻¹.
